In patent US20240026383A1 (priority 2020, published 2024):
Changes are numbered by the printed parent chain. Several values for one entry are separate records, joined by “and”; a condition that tells them apart may be missing. Equal entries are not always repeated. Where two headings read alike, the source gives them in different places.

B1: Tag1: theophylline dependent T4 td intron after ATG of FnCas12a; −4P, −5P, −6P; 5′ exon TCCtcaGGT; SEQ ID NO: 49 (nucleic acid)
DNA: TCCTCAGGTTAATTGAGGCCTGAGTATAAGGTGACTTATACTTGTAATCTATCTAAACGGGGAACCTCTCTAGTAGACAATCCCGTGCTAAATTGATACCAGCATCGTCTTGATGCCCTTGGCAGCATAAATGCCTAACGACTATCCCTTTGGGGAGTAGGGTCAAGTGACTCGAAACGATAGACAACTTGCTTTAACAAGTTGGAGATATAGTCTGCTCTGCATGGTGACATGCAGCTGGATATAATTCCGGGGTAAGATTAACGACCTTATCTGAACATAATGCTA
modifications: Tag1 T4 td intron with the theophylline aptamer
B2: Tag4: theophylline dependent T4 td intron tag; −4M, −5P, −6P; 5′ exon TCCtctGGT; SEQ ID NO: 48 (nucleic acid)
DNA: B1 DNA with A6T
modifications: Tag4 T4 td intron with the theophylline aptamer
B3: Tag2: theophylline dependent T4 td intron tag; −4W, −5P, −6P; 5′ exon TCCtcgGGT; SEQ ID NO: 46 (nucleic acid)
DNA: B1 DNA
modifications: Tag2 T4 td intron with the theophylline aptamer
B4: Tag3: theophylline dependent T4 td intron tag; −4W, −5W, −6P; 5′ exon TCCttgGGT; SEQ ID NO: 47 (nucleic acid)
DNA: B1 DNA with C5T, A6G
modifications: Tag3 T4 td intron with the theophylline aptamer

Legend:
[1] = test system: Flavobacterium IR1; test: Theophylline toxicity assay on growth; type: cell-based; details: 24 hours at 25° C.
Experimental: Because theophylline uptake from IR1 appears to be a prerequisite, a toxicity assay was carried out on the growth of IR with varying theophylline concentrations ([…]) grown for 24 hours at 25° C. […] The arrow indicates the time when theophylline was added to the medium. […] Therefore, 2 mM of theophylline was used for inducing the intron splicing in following experiments.

[2] = test system: LacZa of E. coli MG1655; test: FnCas12a targeting assay with Tagged-T4 td intron variants (CFU drop plating); type: cell-based; details: T crRNA (LacZ), selection medium with 2 mM theophylline
Excerpt: Four different intron variants (as shown previously in FIG. 8), referred to as “Tag1”, “Tag2”, etc. (Tag1: −4P, −5P, −6P; Tag2: −4W, […] −4W, −5W, −6P; Tag4: −4M, −5P, −6P) are inserted directly after the start codon of the GOI (FnCas12a gene). The 5′ exon sequences of the four different tags are indicated: Tag1: TCCtcaGGT (SEQ ID NO: 7); Tag2: TCCtcgGGT (SEQ ID NO: 8); Tag3: TCCttgGGT (SEQ ID NO: 9); Tag4: TCCtctGGT (SEQ ID NO: 10). The 3′ exon sequence is conserved amongst the 4 different tags and indicated as CTA (SEQ ID NO: 12). The amino acids corresponding to the Tag sequences are indicated with capital bold letters above the Tagged-introns. Intron-less (wild-type) FnCas12a was used as a reference for comparison. Efficiency of targeting of the different Tagged-T4 td intron variants was assessed by using either a LacZa targeting (T) or a non-targeting (NT) crRNA and by comparing the amount of colony forming units (CFUs) of transformed E. coli MG1655 per μg of plasmid used (CFUs μg^−1). CFU was determined by the number of colonies observed.
Electrocompetent E. coli MG1655 were transformed (2.5 kV, 200 Ω, 25 μF) with 10 ng μL^−1 of the respective plasmid and recovered for 1 hour in 500 μL LB medium [10 g L^−1 tryptone (Oxoid), 5 g L^−1 yeast extract (BD), 10 g L^−1 NaCl (Acros)] at 37° C. Then, the recovered culture was serially diluted and drop plated on selective (50 μg mL^−1 kanamycin) LB agar plates in the presence or absence of 2 mM theophylline. The agar plates were incubated at 30° C. for 24 hours and the CFUs were counted.
E. coli MG1655 was transformed with a series of plasmids (listed in Table 4) and serially diluted and drop plated on selective (kanamycin) LB media with or without 2 mM theophylline. […] The effect of the CFU reduction was more apparent for the Tag4-intron where colonies could only be observed at the 10° dilution, followed by Tag3-intron (10^−1) then Tag2-intron (10^−2) and finally Tag1-intron ([…]).

[3] = test system: lacZ gene from E. coli interrupted with the T4 td intron; test: LacZ colorimetric (β-galactosidase) assay of T4 td intron exon variants; type: cell-based
Excerpt: To investigate the effect of the flanking regions of the T4 td intron on its splicing efficiency and on the expression of the target gene, a series of constructs were made containing the lacZ gene from E. coli with the intron in between amino acids D6 and S7 (see FIG. 5). These amino acids were identified because insertion at this location would be least likely to impact on the structure of the protein. The lacZ gene was used because its functional expression can be easily monitored by a colorimetric assay and because of its high tolerance for modification at the 5′ end. LacZa is interrupted with the T4 td intron and therefore non-functional. Upon self-splicing and excision of the intron, the ORF of LacZa is complete and functional. LacZa encodes for β-galactosidase which is able to hydrolyse ortho-nitrophenyl-β-D-galactopyranoside (ONPG) into β-D-galactose and ortho-nitrophenol (ONP). ONP can be measured through colorimetric assays. Mutations were made by PCR in the 5′ flank as depicted in Table 1.
All position numbers are relative to the 5′ splice site. […] Since there is the possibility of base pairing, the effect of disallowing base pairing was assessed. If there is no interaction between position −7 and the Internal Guide Sequence (IGS), (the sequence at P1 that forms the base pairing with the 5′ exon sequence), and no difference in LacZ activity should be observed. The −7 position was mutated (while all other nucleotides remained WT) to form either a wobble pair or a mismatch. The self-splicing activity of the three intron variants for β-galactosidase activity was assessed after overnight growth.
This is similar to the situation with the −7 position. Therefore, point mutations at the +296 position of the T4 td intron were made to see if they might impact on the splicing activity of the intron. The WT +296 position (mismatch) was mutated by PCR (Table 2) to form either a pair or a wobble pair with the P1 loop. All mutants were assayed for β-galactosidase activity after overnight growth.
This investigated the effect of altering positions −4 to −6 in all possible combinations of pair (P), mismatch (M) and wobble pair (W) (if applicable) whilst preserving all the other bases as WT. With reference to FIGS. 1 and 4A, positions −4 to −6 is GUU (positions −6 to −4 are UUG) and these pair or interact with UGA at positions +12 to +14, respectively.
In FIG. 8 the wild type intron (*) is (sequences shown from 5′ to 3′) PWM/(UUG) and set to 1. All other LacZ activities are a fraction of the wild type activity. PMP reads either UAA or UGA both being stop codons (**). […] A wobble base pair at position −5 negates to a large extent the effect that −6 and −4 have on the splicing. […]

[4] = test system: LacZ gene of E. coli MG1655; test: SIBR-Cas genome editing (HR and CRISPR-Cas counterselection) of LacZ; type: cell-based; details: for unbiased editing efficiency (LacZ deletion by PCR of randomly selected colonies): X-gal omitted from the medium; for editing efficiency: percentage of white colonies from total CFUs mL-1: blue/white screening, LacZ targeting, induced after 1 hour recovery
Excerpt: For efficient genome editing in bacteria, HR should precede CRISPR-Cas counterselection. To assess whether tight control over CRISPR-Cas targeting could bolster the efficiency of CRISPR-Cas mediated genome editing by allowing more time for HR to occur, we used SIBR-Cas and targeted the LacZ gene of E. coli MG1655 for knock-out through HR and CRISPR-Cas counterselection using a blue/white screening colony assay. To facilitate HR, we added 500 bp up- and down-stream homology arms to the plasmids expressing the four SIBR-Cas (Int1-4) and WT-FnCas12a variants that target the LacZ gene. After 1 hour recovery, we induced the expression of the SIBR-Cas variants to counterselect the WT from the mutant colonies.
Since disruption of LacZ can also be achieved through non-HR mediated approaches (spontaneous mutations or occasional error-prone DNA repair following DNA cleavage by Cas12a), not all gene deletions can be screened phenotypically. Therefore, we repeated our experiment, but X-gal was omitted from the medium to eliminate the possibility of false-positives. Randomly selected colonies that were obtained were screened by PCR for LacZ deletion showing a 0%, 0%, 29% and 38% editing efficiency for Int1, Int2, Int3 and Int4 SIBR-Cas variants, respectively (FIG. 24C). […] The observed decrease in editing efficiency (compared to the blue/white screening) might be attributed to spontaneous LacZ mutations that escape CRISPR-Cas counterselection. Nevertheless, a high editing efficiency (38%) was observed when SIBR-Cas Int4 was used without the use of recombinases or any other complex systems.

[5] = test system: FlgM gene of P. putida; test: Knock-out of the FlgM gene by homologous recombination with tagged-intron-FnCas12a; type: cell-based, Pseudomonas putida; details: T crRNA, 2 mM theophylline
Experimental: Further genome editing experiments were conducted to knock-out the FlgM gene of P. putida. A repair template (1125 bp) was included on the plasmids bearing approximately 500 bp homologous sides upstream and downstream of the FlgM gene. The repair template was introduced to either of the four tagged-intron-FnCas12a variants along with the T crRNA for counterselection or the NT crRNA as a control. Plasmids were transformed to P. putida through electroporation and the transformed cells were recovered in LB medium for 2 hours before plating on LB agar plates containing 50 μg ml^−1 kanamycin and 2 mM theophylline. Plates were incubated at 30° C. overnight and formed colonies were screened through colony PCR for the knock-out of the FlgM gene. […] Tag1 to Tag4 represent the four different Tagged-intron variant plasmids which contain the T (targeting) or the NT (non-targeting) crRNA. […] On the contrary, transformants bearing plasmids with an NT crRNA were all WT.

Molecule | dilution at which colonies could be observed [2] | self-splicing activity ranking of the Tag/Int variants [3] | unbiased editing efficiency (LacZ deletion by PCR of randomly selected colonies) [4] | editing efficiency (FlgM knock-out by colony PCR) [5] | other results
Cn1c(=O)c2[nH]cnc2n(C)c1=O [Theophylline, theophylline] | – | – | – | – | growth of IR1 ([1]; 5 and 10 mM of theophylline): decreased the growth; growth of IR1 ([1]; theophylline concentration of up to 2 mM): did not affect significantly the growth
B1 | 10^−2 | most “tight” | 0% | 0% | self-splicing activity ranking of the Tag/Int variants ([3]; listed as Int1): worst; editing efficiency: percentage of white colonies from total CFUs mL-1 [4]: 0%
B2 | 10° | most “loose” | – | – | self-splicing activity ranking of the Tag/Int variants ([3]; listed as Int4): best splicer; unbiased editing efficiency (LacZ deletion by PCR of randomly selected colonies) ([4]; listed as Int4): 38%±6.41% and 38%; editing efficiency: percentage of white colonies from total CFUs mL-1 ([4]; listed as Int4): 80%±5.57% and 80%
B3 | 10^−2 | – | 0% | 39.3% | editing efficiency: percentage of white colonies from total CFUs mL-1 ([4]; listed as Int2): 1%±0.35% and 1%
B4 | 10^−1 | – | – | 36.6% | unbiased editing efficiency (LacZ deletion by PCR of randomly selected colonies) ([4]; listed as Int3): 29%±18.04% and 29%; editing efficiency: percentage of white colonies from total CFUs mL-1 ([4]; listed as Int3): 49%±8.75% and 49%
